Bounds are passed on as bounds.

The target in experiment [1] is HLA-B*15:09. As to the kind of experiment: IEDB peptide-MHC binding, purified MHC/direct/fluorescence; filed as Kd, often an IC50 or EC50 that approximates it; ≥ and ≤ were set here for values at or beyond the usual limits of such assays. As to conditions: source organism: Variola virus.
Experiment [2] concerns the target HLA-B*39:01. The description is as above. To be noted: source organism: Camelpox virus CMS.
The target in experiment [3] is HLA-A*02:01. Description: IEDB peptide-MHC binding, purified MHC/competitive/fluorescence; filed as Kd, often an IC50 or EC50 that approximates it; ≥ and ≤ were set here for values at or beyond the usual limits of such assays.
For experiment [4], the target named is HLA-A*02:03. The description is as above.
For experiment [5], the target named is HLA-A*02:11. The experiment is described as above.
In experiment [6] the target is HLA-A*02:12. The description is as above.
In experiment [7] the target is HLA-A*02:16. The description is as above.
Experiment [8] addresses HLA-A*02:19. The experiment is described as above.
For experiment [9], the target named is HLA-A*03:01. The experiment is described as above.
Experiment [10] addresses HLA-A*23:01. The description is as above.
Experiment [11] has as its target HLA-A*24:03. Described as above.
Experiment [12] concerns the target HLA-A*26:01. The experiment is described as above.
In experiment [13] the target is HLA-A*29:02. The experiment is described as above.
For experiment [14], the target named is HLA-A*68:02. The experiment is described as above.
For experiment [15], the target named is HLA-A*69:01. The experiment is described as above.
Experiment [16] deals with HLA-B*15:01. The description is as above.
Experiment [17] addresses HLA-B*15:17. The description is as above.
Experiment [18] addresses HLA-B*18:01. The experiment is described as above.
The target of experiment [19] is HLA-B*27:03. The experiment is described as above.
Experiment [20] has as its target HLA-B*39:01. The experiment is described as above.
The target of experiment [21] is HLA-B*46:01. Described as above.
Experiment [22] deals with HLA-B*51:01. The description is as above.
In experiment [23] the target is HLA-B*57:01. The description is as above.
Experiment [24] has as its target HLA-A*02:01. As to the kind of experiment: IEDB peptide-MHC binding, purified MHC/direct/fluorescence; filed as Kd, often an IC50 or EC50 that approximates it; ≥ and ≤ were set here for values at or beyond the usual limits of such assays.
For experiment [25], the target named is HLA-A*02:11. The description is as above.
Experiment [26] deals with HLA-A*69:01. The experiment is described as above.
For experiment [27], the target named is HLA-C*12:03. The description is as above. As to conditions: source organism: Salmonella enterica subsp. enterica serovar Typhi.
Experiment [28] addresses HLA-A*02:50. As to the kind of experiment: IEDB peptide-MHC binding, purified MHC/competitive/fluorescence; filed as Kd, often an IC50 or EC50 that approximates it; ≥ and ≤ were set here for values at or beyond the usual limits of such assays.
The target in experiment [29] is HLA-A*31:01. Described as above. To be noted: source organism: Canarypox virus.
[30] abbreviates: source organism: Coxiella burnetii 'MSU Goat Q177'.
The mark [31] stands for this setting: source organism: Salmonella enterica subsp. enterica serovar Typhi.
Setting [32] is: source organism: Canarypox virus.
Where [33] appears, read: source organism: Vibrio parahaemolyticus RIMD 2210633.
[34] abbreviates: source organism: Mycobacterium tuberculosis.
Setting [35] is: source organism: Yersinia pestis Nepal516.

For orientation: Kd means the constant that tells how readily two partners part at equilibrium. A high value points to a looser complex. As for AHDELENYI, the Kd in [1] came out at 1.67 µM; in experiment [2], 2.86 µM.

For AVDWYQQRI, the Kd in experiment [3] (setting [30]) is at least 20 µM; in experiment [4] (setting [30]), at least 20 µM; in [5] (setting [30]), at least 20 µM; in experiment [6] (setting [30]) it was at least 20 µM; in experiment [7] (setting [30]), 0.36 µM; in experiment [8] (setting [30]), at least 20 µM. Moreover, the Kd in experiment [9] (setting [30]), in experiment [10] (setting [30]), in experiment [11] (setting [30]), in experiment [12] (setting [30]), in [13] (setting [30]) and in experiment [14] (setting [30]) was at least 20 µM throughout. Further, the dissociation constant (Kd) in experiment [15] (setting [30]), in [16] (setting [30]), in experiment [17] (setting [30]), in experiment [18] (setting [30]), in [19] (setting [30]) and in experiment [20] (setting [30]) was at least 20 µM throughout. The Kd in experiment [21] (setting [30]), in experiment [22] (setting [30]) and in [23] (setting [30]) was at least 20 µM in each case.

In the case of FIKNPACTV, the Kd is 6.36 µM in [24] (setting [31]); 0.002 µM in experiment [25] (setting [31]); 0.154 µM in experiment [26] (setting [31]); at most 0.001 µM in experiment [27]; 0.0019 µM in experiment [28] (setting [31]).

Turning to GTIIVHPNK, the Kd in experiment [3] (setting [32]), in experiment [4] (setting [32]), in experiment [5] (setting [32]), in [6] (setting [32]), in experiment [7] (setting [32]) and in experiment [8] (setting [32]) was at least 20 µM each time. In addition, the Kd in experiment [10] (setting [32]) was at least 20 µM; in experiment [11] (setting [32]) it was at least 20 µM; in experiment [12] (setting [32]) it was at least 20 µM; in [29], 0.101 µM; in [14] (setting [32]), at least 20 µM; in experiment [15] (setting [32]), at least 20 µM. The Kd in experiment [16] (setting [32]), in [17] (setting [32]), in experiment [18] (setting [32]), in experiment [19] (setting [32]), in [20] (setting [32]) and in experiment [21] (setting [32]) was at least 20 µM in each case. The Kd in experiment [22] (setting [32]) and in experiment [23] (setting [32]) was at least 20 µM each time.

As for GTVPTDNPF, the Kd in [3] (setting [33]), in experiment [4] (setting [33]), in experiment [5] (setting [33]), in [6] (setting [33]), in experiment [7] (setting [33]) and in [8] (setting [33]) was at least 20 µM throughout. The Kd in [9] (setting [33]), in experiment [10] (setting [33]), in [11] (setting [33]), in [12] (setting [33]), in experiment [14] (setting [33]) and in experiment [15] (setting [33]) was at least 20 µM in each case. In addition, the Kd was at least 20 µM in [18] (setting [33]); at least 20 µM in [19] (setting [33]); at least 20 µM in experiment [20] (setting [33]); at least 20 µM in experiment [21] (setting [33]); at least 20 µM in experiment [22] (setting [33]); 5.47 µM in experiment [23] (setting [33]).

Consider SFYGYGFNV, for which the Kd was determined as 0.413 µM in experiment [24] (setting [34]), 0.01 µM in experiment [25] (source organism: Mycobacterium tuberculosis str. Haarlem), 0.052 µM in experiment [26] (setting [34]) and 0.0224 µM in [28] (source organism: Mycobacterium tuberculosis H37Ra).

Regarding YADGGQWYN, the Kd in experiment [3] (setting [35]) is at least 20 µM; in experiment [4] (setting [35]) it was at least 20 µM; in experiment [5] (setting [35]), 0.0562 µM; in [6] (setting [35]), at least 20 µM; in experiment [7] (setting [35]), at least 20 µM; in [8] (setting [35]), at least 20 µM. Further, the dissociation constant Kd in [9] (setting [35]), in experiment [10] (setting [35]), in experiment [11] (setting [35]), in [12] (setting [35]), in [13] (setting [35]) and in [14] (setting [35]) was at least 20 µM in each case. For the same sequence, the Kd in [15] (setting [35]), in [16] (setting [35]), in experiment [17] (setting [35]), in experiment [18] (setting [35]), in experiment [19] (setting [35]) and in experiment [20] (setting [35]) was at least 20 µM each time. Also, the Kd in experiment [21] (setting [35]) and in experiment [23] (setting [35]) was at least 20 µM in each case.

These data come from the Immune Epitope Database (IEDB).
